In one assay the target is T1, human DEC205 (human, UniProt O60449 28-1722).
T1 construct: also called hDEC205; CHO/hDEC205
Put plainly: flow cytometry on CHO/hDEC205 cells, hCG a/s and anti-rabbit IgG-FITC.

The next assay addresses T2, MAb B52/28.
T2 construct: hCG heterodimer specific monoclonal antibody used in the RIA
The assay is described as follows: RIA: unlabelled hormone displaces 125I-hCG from MAb 52/28 [left panel (A].

These results are taken from patent US20200347138A1 (INDIAN INSTITUTE OF SCIENCE, published 2020).

T1 sequence (O60449 28-1722 K1321N/Y1391H limits assumed): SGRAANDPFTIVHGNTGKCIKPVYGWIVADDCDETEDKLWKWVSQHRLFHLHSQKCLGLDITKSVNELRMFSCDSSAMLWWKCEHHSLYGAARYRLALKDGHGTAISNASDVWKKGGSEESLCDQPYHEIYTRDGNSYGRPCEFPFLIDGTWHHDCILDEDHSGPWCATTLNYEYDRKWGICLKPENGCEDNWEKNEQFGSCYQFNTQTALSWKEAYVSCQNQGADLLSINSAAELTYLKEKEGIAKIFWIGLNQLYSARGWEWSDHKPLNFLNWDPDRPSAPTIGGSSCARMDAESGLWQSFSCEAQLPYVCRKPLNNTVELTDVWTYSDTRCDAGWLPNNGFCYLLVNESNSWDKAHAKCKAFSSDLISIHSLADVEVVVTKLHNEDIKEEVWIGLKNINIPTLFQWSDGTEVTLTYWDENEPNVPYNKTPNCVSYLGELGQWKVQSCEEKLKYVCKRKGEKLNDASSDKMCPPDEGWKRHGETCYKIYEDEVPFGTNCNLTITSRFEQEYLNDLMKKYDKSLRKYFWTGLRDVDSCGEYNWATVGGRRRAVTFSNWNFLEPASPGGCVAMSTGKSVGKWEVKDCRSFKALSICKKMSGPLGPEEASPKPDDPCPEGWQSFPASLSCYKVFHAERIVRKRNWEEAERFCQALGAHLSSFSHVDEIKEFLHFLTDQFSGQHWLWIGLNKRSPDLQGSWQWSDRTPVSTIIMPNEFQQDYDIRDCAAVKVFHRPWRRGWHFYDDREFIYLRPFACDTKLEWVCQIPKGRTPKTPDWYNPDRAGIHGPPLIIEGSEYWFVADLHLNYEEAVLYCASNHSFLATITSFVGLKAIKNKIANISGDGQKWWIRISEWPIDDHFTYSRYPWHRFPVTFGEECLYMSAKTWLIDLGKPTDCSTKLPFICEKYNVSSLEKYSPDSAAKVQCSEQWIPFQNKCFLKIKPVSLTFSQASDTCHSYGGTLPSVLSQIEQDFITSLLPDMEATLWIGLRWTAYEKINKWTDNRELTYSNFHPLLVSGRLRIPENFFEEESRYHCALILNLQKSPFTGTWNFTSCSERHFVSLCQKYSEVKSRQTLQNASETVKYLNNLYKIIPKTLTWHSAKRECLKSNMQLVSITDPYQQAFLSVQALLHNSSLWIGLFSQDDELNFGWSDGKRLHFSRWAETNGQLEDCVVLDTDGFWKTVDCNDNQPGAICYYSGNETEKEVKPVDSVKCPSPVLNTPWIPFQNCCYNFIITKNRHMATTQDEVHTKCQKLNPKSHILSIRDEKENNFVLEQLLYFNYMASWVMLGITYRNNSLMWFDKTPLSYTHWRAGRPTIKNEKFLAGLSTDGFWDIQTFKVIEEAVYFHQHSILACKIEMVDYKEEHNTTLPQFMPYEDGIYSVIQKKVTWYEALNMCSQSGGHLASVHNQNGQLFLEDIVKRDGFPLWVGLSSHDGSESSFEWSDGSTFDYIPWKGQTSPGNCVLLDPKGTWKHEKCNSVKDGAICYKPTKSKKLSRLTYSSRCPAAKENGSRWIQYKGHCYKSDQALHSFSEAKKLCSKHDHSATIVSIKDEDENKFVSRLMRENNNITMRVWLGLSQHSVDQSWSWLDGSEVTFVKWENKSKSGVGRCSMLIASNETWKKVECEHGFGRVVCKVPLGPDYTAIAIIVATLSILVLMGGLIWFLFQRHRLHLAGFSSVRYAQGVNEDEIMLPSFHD
Description for MAb B52/28: The antigen-antibody complexes formed were precipitated by adding an appropriate dilution of the normal mouse/rabbit serum, and goat anti-mouse/rabbit IgG followed by addition of 2.5% PEG. The tubes were centrifuged at 4,000 g for 20 minutes at 4 □, the supernatant was discarded and the radioactivity in the pellet was counted in Perkin Elmer γ-counter. The non-specific binding was determined by carrying out binding experiments in the absence of the primary antibodies.
The biotin tagged hormonal antigens were analyzed by RIA using hormone specific antibodies (52/28 for hCG and FSH a/s for hFSH) for their ability to retain their immunodominant epitopes. […] The NIH iodination grade hCG and hFSH were used as the standard reference preparations in the RIA and were used for comparing the bioactivity of these hormonal antigens.
Description for human DEC205: The ability of ScFv to load antigen onto the human DEC205 was checked by flow cytometry.
The complex was incubated with CHO/hDEC205 cells for one hour at 4□ followed by incubation with hCG a/s and subsequently with anti-Rabbit IgG FITC and binding was analyzed by flow cytometry.

B1: biotin tagged recombinant human chorionic gonadotropin (ligand)
chain 1: not shown
chain 2: SKEPLRPRCRPINATLAVEKEGCPVCITVNTTICAGYCPTMTRVLQGVLPALPQVVCNYRDVRFESIRLPGCPRGVNPVVSYAVALSCQCALCRRSTTDCGGPKDHPLTCDDPRFQDSSSSKAPPPSLPSPSRLPGPSDTPILPQ
modifications: biotin by Sulfo-NHS-LC Biotin on the hormone, sites not stated
notes: also called biotin-hCG
Consider B1, for which the binding result with human DEC205 is reported as “no binding”. In addition, the “IC50 (read off the curve)” value with MAb B52/28 is roughly 6 ng/tube.
